Results published in the DeepSol protein solubility set.

experiment: soluble on expression in E. coli; label from the status in PepcDB or PDB records

Soluble on expression in E. coli, not soluble:
MGSDKIHHHHHHMSKIEELPPSDTDDHSYSSKPGDVFLAFVDAPVKETDDILVEDSFIGGEPKWLHPDSEPPAELLKCGACKSADNMKLLLQAFSPLDDEQMSAIQQRLGINNMSYINPQDDRVLYVFLCTECQRKGNSVRCIRGVKKNKNVDSLSEKMASTSLEKDFQINPFDLSNNSDSKCNAFSSNPFGGANANPFGADSINSNISQSKDEGKKKESATVSAKTARKLHDLQKDKEYDGNKCFKSCLLYVEEETFKNKKPAHLQLPKNLKIDKEALDLTGDEDLEKDPIKLDPRTEKLSKFLDDDTFQKFQEVVGYNPLQVLRYDLGGKPLLYAETKVDILSTVPRPGYNPSSQRIFEMQLMPKMIFDLEEVVSVDNGMEWGTILVFTDVENYMPEFDEHGVGYVEECVKVQWESRT
MGSDKIHHHHHHMSKIFAQDTDCSFLIEQAVKAPSGHNTQPWTFRIKETGIDILPDFTKTLPVVDPDNRELFVSLGCATENLCVAAAHKGYETMVSIAENGTIHIELTKQDSDTPSPLFPHISVRQTNRSVYDGNTIPVNDIVALGEKSDMEPCVGAHFFKNGTREFDAISEMVCEGNSIQMRDKKFKEELQQWMRYNKKHQDATRDGLSYAVFGAPNLSRFIAKAIITRLINEKSQNRNDRRKIASSSHFVLFTTSNNTVVQWIKLGRALEHILLKATGMGISHAYMNQPNEVQGLSGKMAEILGIEDEYPTVLIRLGYGSKMPYSLRRSVQSCIIPNSFD
MGSDKIHHHHHHMSKNIKTPTNQKVLTNVAVVRMKKTGKRFEIACYKNKVVNWRNKSEKDIDEVLQTHTVFSNVSKGQLSKKEELIAAFGIEDQLEIYSRQRRLASVGKRASGGFRSIAERGSFFLLKNVSQLIASMVVNPETKRPVPPSVIDKALQEMHFSLKPNRSSKQQALDAIPKLRETLKIERAKMKIRVAIPTKEAKSVHTKLKTLFSDVEVDDWQDGSLEMVGLIEPGSFRALDDLVRNETKGHGRLEILSLKDVVEGELQIS
MGSDKIHHHHHHMSKTRYYLEQCIPEMDDLVEKGLFTKNEVSLIMKKRTDFEHRLNSRGSSINDYIKYINYESNVNKLRAKRCKRILQVKKTNSLSDWSIQQRIGFIYQRGTNKFPQDLKFWAMYLNYMKARGNQTSYKKIHNIYNQLLKLHPTNVDIWISCAKYEYEVHANFKSCRNIFQNGLRFNPDVPKLWYEYVKFELNFITKLINRRKVMGLINEREQELDMQNEQKNNQAPDEEKSHLQVPSTGDSMKDKLNELPEADISVLGNAETNPALRGDIALTIFDVCMKTLGKHYINKHKGYYAISDSKMNIELNKETLNYLFSESLRYIKLFDEFLDLERDYLINHVLQFWKNDMYDLSLRKDLPELYLKTVMIDITLNIRYMPVEKLDIDQLQLSVKKYFAYISKLDSASVKSLKNEYRSYLQDNYLKKMNAEDDPRYKILDLIISKL
MGSDKIHHHHHHMSLLDKLRELGISENLIKEIEKFRSQYPVDKEYESRIPVPTQFYYGSDVWEQAITAVLCGENLLLVGEKATGKNLFAENLAGVFNRPRWDVSFHVNMDAASLIGTDTFSAGEVTFRPGPVYTAAKTGGFAVLDEINMAKSEAMAVLHATLDFRRTIDVPGYDRLSLHPATRFIATMNYGYAGTKELNEALVSRFAVIRMPMISKESLVKLIKEHYPTIREAGANELAEVFLELHTKCKNGEISSKALDLRGLIGSIGMMEKGLNIYAALDMGITNKSFDEYEQTLIRDTIRARISRKMSREQLFC
MGSDKIHHHHHHMSPDVYLQIFETRRPQLLRLAYRMLGSHAEAEDVVQEAWIRWQAADQAQIAIPAAWLNRVVSRLCLDLMRSARHRRESYIGPWLPEPLIEEEDADHRPDNLTLSLMMALERLSPLERAAFLLHDVFGQSFDEVALALDRSPSAARQLAVRARAHVHIDRPRYKVEREAAEGLTRAFFEACKTGDAAVLSGLLAEDAVLHSDGGGKVYNLLNVIVGAQKLLRMFTSLSRKRGDEMEFVQFTLIDALPGYVWRMGDQIQTTALEVEDGRITRVYTTRNPDKLTRIRLN
MGSDKIHHHHHHMSQLLRKPERAEISKGVTLVHDVTADNASLEYVSFKALDLSQGATYSETLENKECCIVVVTGKVHVTDHEVTFENIGTRESVFEKKPTDSVYVSNNQTFSIEAVTGARVALCYAPSKNQLPTKLIKAEDNGVEHRGKGNNQRMVHNILPDSDPSANSLLVVEVFTESGNWSSYPPHKHDRDLLPEESLLEETYYHEVNPKQGFVFQRVYTDDRSLDETMTVENENMVIVPKGYHPVGVPEGYASYYLNVMAGPKRIWKFFNDPAHEWIIE
